Laboratory results taken from US20190160152A1 (OPKO BIOLOGICS LTD., priority 2016, published 2019).
“Also recorded” adds a separate entry of the source. Read-outs that look alike come from different tables or passages of the source.

Legend:
[1] = ob/ob mouse model Study 1: PEG30-S-MAL-FMS-OXM variants at 2000 nmol/kg; type: in vivo, male ob/ob mice; settings: 2000 nmol/kg sc
Method: Terminal samples on day 19 were analyzed for cholesterol.

[2] = target: T1, dipeptidyl peptidase IV (DPPIV) (Homo sapiens, UniProt P27487); experiment: DPPIV digestion assay by RP-HPLC; settings: pH = 6
[3] = Ex-vivo hydrolysis rate of MOD-6031 in rat plasma; type: in vitro ADME
Method: (§1) After evaporation to dryness and reconstitution, the extracts were analysed by LC-MS/MS. […] Incubation at temperatures of 35° C., 37° C. and 41° C. was examined in rat plasma. […] For human plasma, both pooled and individual samples were measured using plasma derived from male and female subjects. […] The hydrolysis was stopped at the designated time point by freezing the sample at −70° C. […] For each condition, three independent samples were prepared. Samples were incubated at a given temperature of either 35° C., 37° C. or 41° C. All samples were stored at −70° C. prior to analysis. […] Temperature, wherein hydrolysis was tested at temperatures of 35° C., 37° C., and 41° C.; and • c. Plasma source, wherein hydrolysis was tested in plasma samples obtained from rat, cynomolgus monkeys and human. For human plasma, both pooled and individual samples were used, and hydrolysis rates were measured separately for plasma from males and females. […] At designated time points, samples were taken for LC-MS/MS analysis.

[4] = ob/ob mouse model Study 2: chronic MOD-6031, OXM, liraglutide pharmacology; type: in vivo, male ob/ob mice
Method: Body weight, food and water intake were recorded daily. […] Body weight, food and water intake were measured daily.

[5] = Viscosity analysis (Brookfield rheometer); type: physicochemical
Method: Viscosity was measured with a Brookfield rheometer (DV-III Ultra). For each formulation, viscosity was obtained from the average of five shear rate (Sec^−1) readouts (15.0, 30.0, 45.0, 60.0 and 75.0) at a controlled temperature of 25° C. Processing of the data was done using Rheocalc® software (Brookfield).
Conditions included concentration, buffer type, pH, and NaCl. Buffers were formed by interaction of base part of the buffer and the trifluoro acetic acid (TFA) that co-eluted with the […] (DS). […]

[6] = Ex-vivo hydrolysis rate of MOD-6031 in cynomolgus monkey plasma; type: in vitro ADME
Method: as §1

[7] = Ex-vivo hydrolysis rate of MOD-6031 in human plasma; type: in vitro ADME
Method: as §1

[8] = IP glucose tolerance test (IPGTT model); type: in vivo, C57BL/6 male mice
[9] = ob/ob mouse model Study 3: MOD-6031 vs PEG30-Fmoc-OXM vs PEG30-EMCS-OXM; type: in vivo, male ob/ob mice
Method: Forty-two male ob/ob mice (7 weeks of age, Charles River, Italy) were acclimatized to the facility (10 days) followed by handling protocol whereby animals were handled as if to be dosed but were actually not weighed or dosed. Subsequently, animals underwent baseline period for 1 week in which each animal have been dosed twice by the subcutaneous route with PEG30-SH in volume of 20 ml/kg. Body weight, food and water intake were recorded daily, and samples were taken for non-fasting and fasting glucose measurements and non-fasting and fasting insulin measurements. Animals were subsequently allocated into three treatment, control and pair-fed groups (group A, N=10, groups B-E, N=8) based on plasma glucose, body weight and daily food and water intake. […] It was given the daily food ration equal to that eaten by its paired counterpart in group B the previous day. As such, animals in Group E will be one day out of phase with Group B in all study procedures and measurements. During the study, animals were dosed every four days (days: 1, 5, 9, 13, 17, 21, 25 and 29) as describes in table 3. […] Several procedures and sampling have been performed: non-fasting glucose on days 1, 6, 14, 22 and 29, fasting glucose on days 10, 18 and 26. On days 2 and 30 fasting glucose samples have been taken as part of an OGTT procedure, in which insulin was measured in parallel to glucose. Terminal samples on day 33 were analyzed for cholesterol, triglycerides and fructosamine.

[10] = mouse, in vivo, sc
[11] = Hydrolysis rate of MOD-6031 in phosphate buffer at different pH; type: physicochemical
[12] = target: T1, dipeptidyl peptidase IV (DPPIV)
[13] = Monkey (lot# CYN128421) plasma 37° C.
[14] = Monkey (lot# CYN128423) plasma 37° C.
[15] = Human female (pool) plasma 37° C.
[16] = Human male (pool) plasma 37° C.
[17] = blood glucose, 100 nmol/kg peptide content IP 15 min prior to glucose 1.5 gr/kg IP
[18] = control PEG-SH, 100 nmol/kg peptide content IP
[19] = 6000 nmol/kg sc every four days
[20] = 6000 nmol/kg, glucose 2 g/kg po

T1 sequence (P27487 whole entry, species assumed): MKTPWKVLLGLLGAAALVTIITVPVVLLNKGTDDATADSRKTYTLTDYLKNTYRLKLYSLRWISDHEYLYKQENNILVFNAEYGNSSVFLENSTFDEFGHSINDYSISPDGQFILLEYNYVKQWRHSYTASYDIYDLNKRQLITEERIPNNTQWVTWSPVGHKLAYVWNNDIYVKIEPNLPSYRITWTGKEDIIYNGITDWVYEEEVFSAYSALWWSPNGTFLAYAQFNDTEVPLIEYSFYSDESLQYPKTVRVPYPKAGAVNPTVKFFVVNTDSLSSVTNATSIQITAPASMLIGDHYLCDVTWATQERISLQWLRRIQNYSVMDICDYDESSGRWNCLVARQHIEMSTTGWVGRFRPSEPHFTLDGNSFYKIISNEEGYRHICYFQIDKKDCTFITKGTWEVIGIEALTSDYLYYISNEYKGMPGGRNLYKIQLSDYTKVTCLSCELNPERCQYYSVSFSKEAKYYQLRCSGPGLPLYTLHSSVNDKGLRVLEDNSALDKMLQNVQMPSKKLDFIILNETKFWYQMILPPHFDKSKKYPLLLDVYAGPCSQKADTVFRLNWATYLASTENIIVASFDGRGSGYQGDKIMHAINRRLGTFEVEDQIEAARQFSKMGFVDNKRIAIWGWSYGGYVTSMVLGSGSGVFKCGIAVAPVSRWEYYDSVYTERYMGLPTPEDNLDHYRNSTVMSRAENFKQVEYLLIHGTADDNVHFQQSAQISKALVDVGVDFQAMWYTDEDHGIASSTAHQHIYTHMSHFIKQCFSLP

MOD-6031
ability to reduce weight, inhibit food intake and improve glycemic control (in words) [1]: superior efficacies | non-fasting glucose (in words) [1]: improvement of non-fasting glucose | final reduction of body weight (on day 18) compared to vehicle (PEG-SH) group ([1]; days 1, 5, 9, 13 and 16): 4.9% | degradation by DPPIV (in words) [2]: no degradation of OXM was observed | Cl/F_obs ([3]; Table 10, Rat plasma 35° C.): 0.120 (mg)/(μg/ml)/h | MRT0-∞ ([3]; Table 10, Rat plasma 35° C.): 14.7 h | Cl/F_obs ([3]; Table 10, Rat plasma 37° C.): 0.129 (mg)/(μg/ml)/h | MRT0-∞ ([3]; Table 10, Rat plasma 37° C.): 14.7 h | Cl/F_obs ([3]; Table 10, Rat plasma 41° C.): 0.179 (mg)/(μg/ml)/h | MRT0-∞ ([3]; Table 10, Rat plasma 41° C.): 9.6 h | Cl/F_obs ([3]; Table 11, Rat plasma 37° C.): 0.056 (mg)/(μg/ml)/h | MRT0-∞ ([3]; Table 11, Rat plasma 37° C.): 13 h | hydrolysis rate, effect of temperature (in words) ([3]; rat plasma, 41° C. compared with 35° C. or 37° C.): incubation at 41 °C resulted in a higher hydrolysis rate | body weight reduction at the conclusion of the study (day 33) ([4]; 1000 nmol/kg sc twice a week): 5.2% | body weight reduction at the conclusion of the study (day 33) ([4]; 3000 nmol/kg sc twice a week): 12.3% | body weight and food consumption (in words) ([4]; 3000 nmoles/kg twice a week): significantly reduced | body weight reduction at the conclusion of the study (day 33) ([4]; 6000 nmol/kg sc twice a week): 28.3% | food intake and body weight (in words) ([4]; 6000 nmol/kg twice a week): significantly reduced | glucose tolerance, OGTT days 2 and 30 (in words) ([4]; 1000, 3000 and 6000 nmoles/kg, glucose 2 g/kg po): significantly and dose-dependently improved | terminal cholesterol (in words) ([4]; day 33): dose-dependently reduced | terminal glucose (in words) ([4]; study termination, day 33): dose-dependently reduced | terminal plasma insulin (in words) ([4]; study termination, day 33): markedly reduced | Viscosity ([5]; 100 mM Acetate, 100 mM Sucrose, pH 4.7, 66 mg/ml): 20.41 cp | Viscosity ([5]; 100 mM Acetate, 100 mM Sucrose, pH 4.7, 72 mg/ml): 23.91 cp | Viscosity ([5]; 100 mM Acetate, 100 mM Sucrose, pH 4.7, 77 mg/ml): 26.08 cp | Viscosity ([5]; 100 mM Acetate, 100 mM Sucrose, pH 4.7, 80 mg/ml): 30.02 cp | Viscosity ([5]; 100 mM Acetate, 100 mM Sucrose, pH 4.7, concentration 60 mg/ml (A280)): 17.48 cp | Viscosity ([5]; T = 0, 50 mM Acetate pH 4.7, 60 mg/mL): 19.7 cP | Viscosity ([5]; T = 0, 50 mM Acetate pH 4.7, 70 mg/mL): 29.2 cP | Viscosity ([5]; T = 0, 50 mM Acetate pH 4.7, 80 mg/mL): 43.6 cP | Viscosity ([5]; T = 0, 50 mM Acetate pH 4.7, 100 mg/mL): 79.2 cP | Viscosity ([5]; T = 0, 50 mM Acetate pH 4.7, theoretical concentration 50 mg/mL): 12.9 cP | Viscosity ([5]; T = 0, 100 mM Acetate pH 4.7, 50 mg/mL): 12.9 cP | Viscosity ([5]; T = 0, 100 mM Acetate pH 4.7, 60 mg/mL): 20.8 cP | Viscosity ([5]; T = 0, 100 mM Acetate pH 4.7, 70 mg/mL): 32.9 cP | Viscosity ([5]; T = 0, 100 mM Acetate pH 4.7, 80 mg/mL): 48.7 cP | Viscosity ([5]; T = 0, 100 mM Acetate pH 4.7, 100 mg/mL): 87.4 cP | Viscosity ([5]; T = 24 hrs, 50 mM Acetate pH 4.7, 50 mg/mL): 12.2 cP | Viscosity ([5]; T = 24 hrs, 50 mM Acetate pH 4.7, 60 mg/mL): 19.4 cP | Viscosity ([5]; T = 24 hrs, 50 mM Acetate pH 4.7, 70 mg/mL): 28.3 cP | Viscosity ([5]; T = 24 hrs, 100 mM Acetate pH 4.7, 50 mg/mL): 12.8 cP | Viscosity ([5]; T = 24 hrs, 100 mM Acetate pH 4.7, 60 mg/mL): 20.4 cP | Viscosity ([5]; T = 24 hrs, 100 mM Acetate pH 4.7, 70 mg/mL): 32.5 cP | Cl/F_obs [6, 13]: 0.172 (mg)/(μg/ml)/h | MRT0-∞ [6, 13]: 5 h | Cl/F_obs [6, 14]: 0.043 (mg)/(μg/ml)/h | MRT0-∞ [6, 14]: 15 h | Cl/F_obs [7, 15]: 0.102 (mg)/(μg/ml)/h | MRT0-∞ [7, 15]: 9 h | Cl/F_obs ([7]; Human female A plasma 37° C.): 0.125 (mg)/(μg/ml)/h | MRT0-∞ ([7]; Human female A plasma 37° C.): 8 h | Cl/F_obs ([7]; Human female B plasma 37° C.): 0.136 (mg)/(μg/ml)/h | MRT0-∞ ([7]; Human female B plasma 37° C.): 9 h | Cl/F_obs ([7]; Human female C plasma 37° C.): 0.143 (mg)/(μg/ml)/h | MRT0-∞ ([7]; Human female C plasma 37° C.): 7 h | Cl/F_obs [7, 16]: 0.064 (mg)/(μg/ml)/h | MRT0-∞ [7, 16]: 14 h | Cl/F_obs ([7]; Human male A plasma 37° C.): 0.133 (mg)/(μg/ml)/h | MRT0-∞ ([7]; Human male A plasma 37° C.): 8 h | Cl/F_obs ([7]; Human male B plasma 37° C.): 0.148 (mg)/(μg/ml)/h | MRT0-∞ ([7]; Human male B plasma 37° C.): 7 h | Cl/F_obs ([7]; Human male C plasma 37° C.): 0.146 (mg)/(μg/ml)/h | MRT0-∞ ([7]; Human male C plasma 37° C.): 7 h | hydrolysis rate in different plasma types (in words) ([7]; rat, cynomolgus monkey and human plasma, 37° C.): comparable hydrolysis rate in most of the plasma samples; also recorded: very similar | glucose tolerance (in words) ([8]; IPGTT, compared to vehicle PEG-SH): slightly less potent | AUC (0-180) [8, 17]: 15781 | AUC (−60-180) [8, 17]: 19891 | % AUC from control, AUC (0-180) [8, 18]: 70.1% | % AUC from control, AUC (−60-180) [8, 18]: 74.1% | Final reduction changes in body weight (on day 33) compared to control (PEG-SH) [9, 19]: 25.4% | fasting glucose (in words) [9, 19]: significant improvement | non-fasting glucose (in words) [9, 19]: significant improvement | terminal plasma lipidic profiles and fructosamine (in words) ([9]; 6000 nmol/kg, day 33): significant reduction | glucose profile, Day 30 OGTT (in words) [9, 20]: significant improved glucose profile | glucose tolerance, day 2 OGTT (in words) [9, 20]: significantly improved glucose tolerance | Plasma concentration 24 hours following last injection of repeat dosing regimen (Day 33) ([10]; 1000 nmol/kg): 67.51 µg/mL | Plasma concentration 24 hours following single dose (Day 2) ([10]; 1000 nmol/kg): 51.57 µg/mL | Plasma concentration 24 hours following single dose (Day 2) ([10]; 3000 nmol/kg): 183.33 µg/mL | Plasma concentration 24 hours following last injection of repeat dosing regimen (Day 33) ([10]; 6000 nmol/kg): 493.60 µg/mL | Cl/F_obs ([11]; Phosphate pH = 6.8): 0.061 (mg)/(μg/ml)/h | MRT0-∞ ([11]; Phosphate pH = 6.8): 47.4 h | Cl/F_obs ([11]; Phosphate pH = 7.4): 0.133 (mg)/(μg/ml)/h | MRT0-∞ ([11]; Phosphate pH = 7.4): 20.3 h | Cl/F_obs ([11]; Phosphate pH = 7.8): 0.227 (mg)/(μg/ml)/h | MRT0-∞ ([11]; Phosphate pH = 7.8): 10.7 h

PEG30-EMCS-OXM: non-reversible form where N-(epsilon-Maleimidocaproyloxy)succinimide (EMCS) replaces Fmoc as linker
degradation by DPPIV (in words) [12]: no degradation of the conjugates was observed | Final reduction changes in body weight (on day 33) compared to control (PEG-SH) [9, 19]: 2.4%
